US11278600B2, “Human alpha-galactosidase variants” (Codexis, Inc., priority 2014, dated 2022)

B1: 157 (protein)
chain: LDNGLARTPTMGWLHWERFMCNLDCQEEPDSCISEKLFMEMAELMVSEGWKDAGYEYLCIDDCWMAPQRDSEGRLQADPQRFPHGIRQLANYVHSKGLKLGIYADVGNKTCAGFPGSFGYYDIDAQTFADWGVDLLKFDGCYCDSLENLADGYKHMSLALNRTGRSIVYSCEWPLYMWPFQKPNYTEIRQYCNHWRNFADIDDSWKSIKSILDWTSFNQERIVDVAGPGGWNDPDMLVIGNFGLSWNQQVTQMALWAIMAAPLFMSNDLRHISPQAKALLQDKDVIAINQDPLGKQGYQLRQGDNFEVWERPLSGLAWAVAMINRQEIGGPRSYTIAVASLGKGVACNPACFITQLLPVKRKLGFYEWTSVLRSHINPTGTVLLQLENTMQMSKDLLL
modifications: Synthetic Polypeptide sequence of Variant No. 157 of mature Human GLA
B2: 158 (protein)
chain: LDNGLARTPTMGWLHWERFMCNLDCQEEPDSCISEKLFMEMAELMVSEGWKDAGYEYLCIDDCWMAPQRDSEGRLQADPQRFPHGIKQLANYVHSKGLKLGIYADVGNKTCAGFPGSFGYYDIDAQTFADWGVDLLKFDGCYCDSLENLADGYKHMSLALNRTGRSIVYSCEWPLYMWPFQKPNYTEIRQYCNHWRNFADIDDSWKSIKSILDWTSFNQERIVDVAGPGGWNDPDMLVIGNFGLSWNQQVTQMALWAIMAAPLFMSNDLRHISPQAKALLQDKDVIAINQDPLGKQGYQLRQGDNFEVWERPLSGLAWAVAMINRQEIGGPRSYTIAVASLGKGVACNPACFITQLLPVKRKLGFYEWTSRLRSHINPTGTVLLQLENTMQMSKDLLL
modifications: Synthetic Polypeptide sequence of Variant No. 158 of mature Human GLA
B3: 159 (protein)
chain: LDNGLARTPTMGWLHWERFMCNLDCQEEPDSCISEKLFMEMAELMVSEGWKDAGYEYLCIDDCWMAPQRDSEGRLQADPQRFPHGIPQLANYVHSKGLKLGIYADVGNKTCAGFPGSFGYYDIDAQTFADWGVDLLKFDGCYCDSLENLADGYKHMSLALNRTGRSIVYSCEWPLYMWPFQKPNYTEIRQYCNHWRNFADIDDSWKSIKSILDWTSFNQERIVDVAGPGGWNDPDMLVIGNFGLSWNQQVTQMALWAIMAAPLFMSNDLRHISPQAKALLQDKDVIAINQDPLGKQGYQLRQGDNFEVWERPLSGLAWAVAMINRQEIGGPRSYTIAVASLGKGVACNPACFITQLLPVKRKLGFYEWTSRLRSHINPTGTVLLQLENTMQMSKDLLR
modifications: Synthetic Polypeptide sequence of Variant No. 159 of mature Human GLA
B4: 160 (protein)
chain: LDNGLARTPTMGWLHWERFMCNLDCQEEPDSCISEKLFMEMAELMVSEGWKDAGYEYLCIDDCWMAPQRDSEGRLQADPQRFPHGIRQLANYVHSKGLKLGIYADVGNKTCAGFPGSFGYYDIDAQTFADWGVDLLKFDGCYCDSLENLADGYKHMSLALNRTGRAIVYSCEWPLYMWPFQKPNYTEIRQYCNHWRNFADIDDSWKSIKSILDWTSFNQERIVDVAGPGGWNDPDMLVIGNFGLSWNQQVTQMALWAIMAAPLFMSNDLRHISPQAKALLQDKDVIAINQDPLGKQGYQLRQGDNFEVWERPLSGLAWAVAMINRQEIGGPRSYTIAVASLGKGVACNPACFITQLLPVKRKLGFYEWTSRLRSHINPTGTVLLQLENTMQMSKDLLL
modifications: Synthetic Polypeptide sequence of Variant No. 160 of mature Human GLA
B5: 161 (protein)
chain: LDNGLARTPTMGWLHWERFMCNLDCQEEPDSCISEKLFMEMAELMVSEGWKDAGYEYLCIDDCWMAPQRDSEGRLQADPQRFPHGIRQLANYVHSKGLKLGIYADVGNKTCAGFPGSFGYYDIDAQTFADWGVDLLKFDGCYCDSLENLADGYKHMSLALNRTGRHIVYSCEWPLYMWPFQKPNYTEIRQYCNHWRNFADIDDSWKSIKSILDWTSFNQERIVDVAGPGGWNDPDMLVIGNFGLSWNQQVTQMALWAIMAAPLFMSNDLRHISPQAKALLQDKDVIAINQDPLGKQGYQLRQGDNFEVWERPLSGLAWAVAMINRQEIGGPRSYTIAVASLGKGVACNPACFITQLLPVKRKLGFYEWTSRLRSHINPTGTVLLQLENTMQMSKDLLL
modifications: Synthetic Polypeptide sequence of Variant No. 161 of mature Human GLA
B6: 162 (protein)
chain: LDNGLARTPTMGWLHWERFMCNLDCQEEPDSCISEKLFMEMAELMVSEGWKDAGYEYLCIDDCWMAPQRDSEGRLQADPQRFPHGIRQLANYVHSKGLKLGIYADVGNKTCAGFPGSFGYYDIDAQTFADWGVDLLKFDGCYCDSLENLADGYKHMSLALNRTGRKIVYSCEWPLYMWPFQKPNYTEIRQYCNHWRNFADIDDSWKSIKSILDWTSFNQERIVDVAGPGGWNDPDMLVIGNFGLSWNQQVTQMALWAIMAAPLFMSNDLRHISPQAKALLQDKDVIAINQDPLGKQGYQLRQGDNFEVWERPLSGLAWAVAMINRQEIGGPRSYTIAVASLGKGVACNPACFITQLLPVKRKLGFYEWTSRLRSHINPTGTVLLQLENTMQMSKDLLL
modifications: Synthetic Polypeptide sequence of Variant No. 162 of mature Human GLA
B7: 39 (protein)
chain: LDNGLARTPTMGWLHWERFMCNLDCQEEPDSCISEKLFMEMAELMVSEGWKDAGYEYLCIDDCWMAPQRDSEGRLQADPQRFPHGIRQLANYVHSKGLKLGIYADVGNKTCAGFPGSFGYYDINAQTFADWGVDLLKFDGCYCDSLGNLADGYKHMSLALKQVGASSIVXCEWPLYSWPFQKPNYTEIRQYCNHWRNFADIDDSWKSIKSILDWTSENQERIVDVAGPGGWNDPDMLVIGNFGLSWNQQVTQMALWAIMAAPLFMSNDLRHISPQAKALLQDKDVIAINQDPLGKQGYQLRQGDNFEVWERPLSGLAWAVAMINRQEIGGPRSYTIAVASLGKGVACNPACFITQLLPVKRKLGFYEWTSRLRSHINPTGTVLLQLENTMQMSKDLLL
modifications: Synthetic Polypeptide sequence of Variant No. 39 of mature Human GLA; VARIANT (170)..(170): Xaa = any amino acid or absent
B8: 163 (protein)
chain: LDNGLARTPTMGWLHWERFMCNLDCQEEPDDCISEKLFMEMAELMVSEGWKDAGYEYLCIDDCWMAPQRDSEGRLQADPQRFPHGIRQLANYVHSKGLKLGIYADVGNKTCAGFPGSFGYYDIDAQTFADWGVDLLKFDGCYCDSLENLADGYKHMSLALNRTGRSIVYSCEWPLYMWPFQKPNYTEIRQYCNHWRNFADIDDSWKSIKSILDWTSFNQERIVDVAGPGGWNDPDMLVIGNFGLSWNQQVTQMALWAIMAAPLFMSNDLRHISPQAKALLQDKDVIAINQDPLGKQGYQLRQGDNFEVWERPLSGLAWAVAMINRQEIGGPRSYTIAVASLGKGVACNPACFITQLLPVKRKLGFYEWTSRLRSHINPTGTVLLQLENTMQMSKDLLL
modifications: Synthetic Polypeptide sequence of Variant No. 163 of mature Human GLA

Legend:
Type in all cases: biochemical
[1] = HTP-analysis of supernatants pretreated with acid (MUGal hydrolysis); conditions: challenge at pH 4.2; activity of the variant/activity of WT GLA (SEQ ID NO: 5); yeast supernatant
Method in brief: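 GLA variants were secreted from INVSc1 yeast grown 66-84 h at 30° C. in SD-Ura with 2% glucose; supernatants were mixed with McIlvaine buffer pH 3.3-4.3 and held at 37° C. for 1-3 h. Residual activity on MUGal at pH 4.8 was then measured by fluorescence.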

[2] = HTP-analysis of yeast culture supernatants, no challenge (MUGal hydrolysis); conditions: activity of the variant/activity of WT GLA (SEQ ID NO: 5), yeast supernatant
Method in brief: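 Activity read as 4-methylumbelliferyl α-D-galactopyranoside hydrolysis: fluorescence (355/448 nm) after sodium carbonate stop, following 30-180 min at 37° C with 2 mM MUGal stock at pH 4.6–4.8. Enzyme source is unchallenged culture supernatant of INVSc1 yeast expressing GLA variants, grown 66-84 h at 30° C.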

[3] = HTP-analysis of supernatants pretreated with base (MUGal hydrolysis); conditions: challenge at pH 7.1; activity of the variant/activity of WT GLA (SEQ ID NO: 5); yeast supernatant
Method in brief: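 Supernatants from INVSc1 yeast expressing GLA variants (SD-Ura, 66-84 h, 30° C) were mixed with McIlvaine buffer pH 7.0-8.2 or 200 mM sodium bicarbonate pH 9.1-9.7 and held 1-18 h at 37° C. Residual activity was then measured on MUGal at pH 4.8/4.3, 37° C, 30-180 min, by fluorescence (Ex 355/Em 448 nm).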

| Molecule | Relative Activity of GLA Variants After Challenge at pH 4.2 [1] | Relative Activity of GLA Variants After No Challenge (NC) [2] | Relative Activity of GLA Variants After Challenge at pH 7.1 [3] |
| --- | --- | --- | --- |
| B1 | + (+ = 0.5 to 1.5 relative activity over WT GLA (SEQ ID NO: 5)) | ++ (++ = >1.5 to 2.5 relative activity over WT GLA (SEQ ID NO: 5)) | ++ (++ = >1.5 to 2.5 relative activity over WT GLA (SEQ ID NO: 5)) |
| B2 | + (+ = 0.5 to 1.5 relative activity over WT GLA (SEQ ID NO: 5)) | ++ (++ = >1.5 to 2.5 relative activity over WT GLA (SEQ ID NO: 5)) | ++ (++ = >1.5 to 2.5 relative activity over WT GLA (SEQ ID NO: 5)) |
| B3 | + (+ = 0.5 to 1.5 relative activity over WT GLA (SEQ ID NO: 5)) | + (+ = 0.5 to 1.5 relative activity over WT GLA (SEQ ID NO: 5)) | + (+ = 0.5 to 1.5 relative activity over WT GLA (SEQ ID NO: 5)) |
| B4 | ++ (++ = >1.5 to 2.5 relative activity over WT GLA (SEQ ID NO: 5)) | + (+ = 0.5 to 1.5 relative activity over WT GLA (SEQ ID NO: 5)) | + (+ = 0.5 to 1.5 relative activity over WT GLA (SEQ ID NO: 5)) |
| B5 | + (+ = 0.5 to 1.5 relative activity over WT GLA (SEQ ID NO: 5)) | + (+ = 0.5 to 1.5 relative activity over WT GLA (SEQ ID NO: 5)) | + (+ = 0.5 to 1.5 relative activity over WT GLA (SEQ ID NO: 5)) |
| B6 | + (+ = 0.5 to 1.5 relative activity over WT GLA (SEQ ID NO: 5)) | + (+ = 0.5 to 1.5 relative activity over WT GLA (SEQ ID NO: 5)) | + (+ = 0.5 to 1.5 relative activity over WT GLA (SEQ ID NO: 5)) |
| B7 | ++ (++ = >1.5 to 2.5 relative activity over WT GLA (SEQ ID NO: 5)) | + (+ = 0.5 to 1.5 relative activity over WT GLA (SEQ ID NO: 5)) | ++ (++ = >1.5 to 2.5 relative activity over WT GLA (SEQ ID NO: 5)) |
| B8 | + (+ = 0.5 to 1.5 relative activity over WT GLA (SEQ ID NO: 5)) | + (+ = 0.5 to 1.5 relative activity over WT GLA (SEQ ID NO: 5)) | + (+ = 0.5 to 1.5 relative activity over WT GLA (SEQ ID NO: 5)) |
